This note sets out measurements from a protein production outcome set (Wang et al. 2014).

The nature of the data set: label from the status in PepcDB records.

Consider “MNFPISTIRIGGWVVVAKNPDDIVAKFYFAKKKLIWEFLFGEPETNTLRLKRKIEIQWNDVSSFEESISSRDETGILKIELKKRPTFFIETNPQAGKHTQWKQLDHDFTGDHASNYRRHTLHFPPGVLQKNLEKLVTDSFWSKLYEVPFPVHESRYFDSGFENNSSRNSHSHTVGFNVNNGPQHHFSQGIGGVGVGEGNFSMANGGWQRNSYSPVNSLNYNTANEFFGMQATPPSSQVVNEHYNTQNDFTGSQFGYHMNQDEIQKILESQAYAVPDTQTKLMSSAMNNVPKYPQAGSCLESMLFWYEHRRRFQQ”, for which the protein production entry is “failed”. On to “MNFPTQTHAIDFDTAELQRLGFRNRPDAVLPPPSLPELVYQLGRQLQTSLEAERILTLFFQGVQRFLPLSGLVYRHIESDLHLRLGEMSSDSASFHLRHEGKCIGELEFQGAKPFDTRQLSDLESLLVCLVYPLLNALLYRIATQTALRDPLTSTGNRIAMDQGLAREIEISSRHKQPLSLLMLDIDHFKKVNDEYGHHTGDDVLKTVAQSLKAQLRNIDRVFRYGGEEFVVILSNTGATAAELIGERLRQAVRNLEFRELDPALTMTVSLGCSTLLPTETADSLLRRADNALYVAKREGRNRLAMAS”, for which the protein production result is reported as “failed”. To “MNFQRFKAIVKKEVIQLKRDRASFGIAIMMPIVMIFLFGYAVNTELSNISMTVLDQSNSIESRELIQSFQNTGYFKVVSRVKSIEEVREKMDKGKVHAAIVIPPDFSNKLQMREESNVQLLVDGSDPTTARTAFSSGVVSGQQYGMKKLQGFGEKTSSKFQEGGVNVNTRVLYNPNLRNQNFTIPGLIGLIMQNITILLTAFALVRERERGTIEQLTVSPLKAGEIILGKLVPYIFIGYIDFLFSLVLGIKWFNVPINGSIPLLLLLGFAFVICALAIGILISTISKTQLQAMQLTILVLLPSILLSGFVFPREAMPKVIQLIGNVLPLTYFLNILRGIITKGVGVQYLSRDIAAMCCLAVILLTLSIVRFRAKPYNS” belongs “failed”. In the case of “MNGASLCNSVLLHSHSLSRFQSSSSSCSVYLISSARTTSKYISISHRIRQSFREVIEKRSNGFCSFAVNKRRSGDSVIVESDDDDEEDDEDWGEFDGEDEGEEEEEDEGEFLPMDKMKKWLEKKPRGFGLGKKYETLIEDKLLDEIEQSWKAQAANLNKLKNDPLKSQQLKRDDNLLKGTGETQIGFRVRVTNLPKKKNVHRDLKVAFKEVSGVLSITPAVSGNKKTKDPVCKGFAHVDFKTEIDANRFVKQFTGQSLAFGKVIKQIKCQVVEFTSDDSVSKEVYLDNGFKVQKLPYSGLEGDSSADVVEEEVLLGSGEESDDSEEEVDEREVEDDERNHISSSIESSPIEMTRDSNTKLKFEKQVVKREIREHEELETPLVSFQVNKSEEAAAETHLDDEQSEEAVAETLLNDELDGDDEEEVAEDNLEPLNSSLSSSEENRVDRIRRLEQKLLGKEKLLGGGVGFDKPEAKPARVEGKKKEKKKKTKILVKGQAKKGTKIEIPGSSKR”, the protein production entry was “failed”.

With “MNGMLLSRIKKKAMELAEDLKLVDFSFGLPYTWVLVEGIEGRALGVAMTLPEEVQRYTNSIEEPSLLEFIDKADSLNIIERTLGVAAINAVSQYYIDLREAKWIDVTELIQQDEIKRIAIIGNMPPVVRTLKEKYEVYVFERNMKLWDRDTYSDTLEYHILPEVDGIIASASCIVNGTLDMILDRAKKAKLIVITGPTGQLLPEFLKGTKVTHLASMKVTNIEKALVKLKLGSFKGFESESIKYVIEV”, the protein production result is listed as “not failed”. For the sequence “MNGTALNWLELCRTVGPCLRPGGTALTDRALEVCNLSADSLIADVGCGAGGTLYHLEQIGFRRLVGLDPSETLLGDAAPRLETARLIRGEAATIPLRSATVDLLLCECVLSVLPGRSAPLREFARVVKDGGYLVVSDVFSTAGDEATGQAGGLLTRKELLAAVAGNGFTLLRWETHDRLLKEFAVRMILAGECLPDAWKGGTERKGEAARGGLGYFLMVARKAEDPLP”, the protein production entry is on record as “failed”. Consider “MNHHHHNHHGEAGFKRKVDYLDRPERSEVLAPEEFLQRIPMEKTASILDLGAGTGFLTIPAAKKVENTVFALDLDTKMLELIETKAKTAELANVKTLEASMDDIPLETSSVDVVLASLVLHEADSLADVLREVSRVVKTGGYFASLEFDTKGTDLKGPPMEIQISAEKLKEELAGFGFEVVQNWELDEGMYVSIAEKKE”, for which the protein production result is recorded as “failed”. Consider “MNHNYVEVKYPAIFRDEGTYWDVRFPDVPAAQTFGASVQVAADNAANALAIALFEQSLPPASDPQYWRLASTEFVVWITMADVQFGPGADTPEPMN”, for which the protein production entry is on record as “not failed”. To “MNHSIPTLRTERLTLRPLAMADFPAYRDFMASPRSTGVGGPYDLPSTWGVFCHDLANWHFFGHGALMIDLGETGECIGQIGINHGPLFPEKELGWLLYEGHEGRGYAAEAAVALRDWAFETLNLPTLVSYVSPQNRKSAAVAERIGGTLDPLAPRSDPEDLVYRYHQVKTA” belongs “not failed”; to “MNHTLQFPKAPEHLLQALNEVIPKCKLMAQQLPETAISLWLIPPVFPTERLDDDIIRRIWSDTPYWIFCWASGLAMAQWLLAEPHHVKDKVVLDFGAGSGVVAIAAKMAGAKRVICCDIDETSLNACRENALLNNVELEYLNDLYLSESVDILLAADVLYDQSNRFFLDEFLKFAPEVWVADSRVKNFSHPGYIKIDERSATTWPDLDEAKEFRNVSFYKTLEHHHHHH”, “failed”; to “MNIAFTFKNFEPSEHLKKYARRRFEKLARFVGKSANLELQVALSLDKFRQKAEVQLVGDSINIAAVEQSEDMYATIDLVLDKLEAQLKKHVSRVKERRRSARTNANIDVFTYHTEGEGEDRAIVGTDQFVPKPLHVDEAAMQLDALDYEFLVFLNAESERINVIYRRRNGDFGLIDPVV”, “failed”. Turning to “MNIAISGASGFIGKHLTEYLTEAGHRVVPLGRPMFREGTSGHLIQALSHCDVIINLAGAPIGKRWTPEYKKELYDSRIKVTHCIIRAMDAVKTKPRLMISASAVGYYPEEGTFDEYTNTRGSGFLAELCYAWEKEARRCPSQTRLVITRFGIVLSPDGGAMEQMLRPLRITRVAGVIGPGTQPFPWIAIQDLCRAMEFIIRHEEASGVFNLVAPQQVSQYAFTQAMAARYHAWMKVVVPRWFFRMRYGEAASFLASGQNVRPTRLLEAGFRFAKPTIEDFFEGTDHAVVDRLDLHRYMGTWYEIARFDHRFERGLSEVTATYTLMPDGTVRVENRGCKHKKPYDVCKTAEGRAKIPDPSQPGKLKVSFFLSFYSDYYVLELDQDEYNYALIGSSSDKYLWILSRAPILPEEIKKKLLDAATRRGYDVKKLIWVEQREKKIM”, the protein production result is given as “failed”.

Take “MNIALARSVVGERLRLLAERMGLVAKRLQDMSQDDTPGRCTPEHCAIQVDSDDEIGDGARAFNQLIQALSLSIETETAVRTFTEMLVSELDVHQLTEQALALLLQHTGADGGAILIEVDGEIRVAASQGIGSAHTLANNDRVRSALRTERRHRVQLPEDLVVDGMLAQFRPKEVIIDPVRHKEVVLGAVVLASGQGFSAEDRNRLDVFERGLALALHNALLYDRLQTLAALDPLTGAYNRRFGMARLREEFRRAVRLNLPLGILMFDIDYFKRINDTYGHLAGDRVLSRVAKTARSVLREGDVLIRYGGEEFIAVLPAASLHDLEYVGERLRHQVDDLMLMDGDQSMHVTVSIGAAAYPDTDVEDETALVDRADKALYAAKSDGRNRLVIS”: the protein production entry is “failed”. Turning to “MNIAVQTLRALAETIVTPSYLLTIIVIMIMFYMKNRRISFMQRMIIGQNIESPFELTLSQITLSIIAGALGSVILSYLGVVFKDNSAIVLLFLISVILMFAGSRFLCFSYSGSILGIISIVIQFLSVNKIADVSSIKFLEIDVVMIMSLVGVLHIVEGIIVMIDGKSGAIPVFTNREDKIIGGFAFKRYWVLPITLLFLLNNADLNGTVNVATPDSWPIIRTAFTVIGKSAVISFMMFYGIIGYKSVTFTKSKRKKTFMSGMAIALYGAVLLGLSQVLKHNLEQQIILCLLAPLLHETMLRLEAYSEVKGKPKFVSGEDGVMVLDVAPNSQAYEMGIKSGDLLLEINDTKIFSEEDITRSIQNMSKYMWFKIKDVQGKLNEISYDKFDRNKKLGAIFVPKGMPKESKIVKFEHKSFDDILDNVNKEDENKKDQK”, the protein production result is recorded as “failed”. With “MNIEEFTSGLAEKGISLSPRQLEQFELYYDMLVEWNEKINLTSITEKKEVYLKHFYDSITAAFYVDFNQVNTICDVGAGAGFPSLPIKICFPHLHVTIVDSLNKRITFLEKLSEALQLENTTFCHDRAETFGQRKDVRESYDIVTARAVARLSVLSELCLPLVKKNGLFVALKAASAEEELNAGKKAITTLGGELENIHSFKLPIEESDRNIMVIRKIKNTPKKYPRKPGTPNKSPIEG”, the protein production result is given as “not failed”.
